Test results taken from the supplement of paper PMC7877785.
± gives the uncertainty stated by the source.

Experiment: self-splicing fitness, log relative to wild type (ln ratio); higher = more splicing; Tetrahymena group I intron in knt gene, E. coli kanamycin selection, DiMSum; sequences stand for … in CUCUCU…GGAGGGAAAAGUUAUCAGGCAUGCACCUGGUAGCUAGUCUUUAAACCAAUAGAUUGCAUCGGUUUAAAAGGCAAGACCGUCAAAUUGCGGGAAAGGGGUCAACAGCCGUUCAGUACCAAGUCUCAGGGGAAACUUUGAGAUGGCCUUGCAAAGGGUAUGGUAAUAAGCUGACGGACAUGGUCCUAACCACGCAGCCAAGUCCUAAGUCAACAGAUCUUCUGUUGAUAUGGAUGCAGUUCACAGACUAAAUGUCGGUCGGGGAAGAUGUAUUCUUCUCAUAAGAUAUAGUCGGACCUCUCCUUAAUGGGAGCUAGCGGAUGAAGUGAUGCAACACUGGAGCCGCUGGGAACUAAUUUGUAUGCGAAAGUAUAUUGAUUAGUUUUGGAGUACUCGUGGUCG
Summary of the method: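 DiMSum derived fitness as the error-weighted combination of fold changes across replicates, kanamycin versus no kanamycin, normalised to wild type. E. coli BL21(DE3) held the library, which randomised all eight P1ex-region intron nucleotides within the knt kanamycin-resistance gene on pET-22b(+). Six replicate transformations grew overnight at 37°C or 30°C on LB agar with or without 25 μg/mL kanamycin, also containing 100 μg/mL carbenicillin, 50 μM IPTG and 0.2% rhamnose, and pooled colonies were amplicon-sequenced on an Illumina HiSeq 2500.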

Row | Sequence | self-splicing fitness (ln) (30 °C) | self-splicing fitness (ln) (37 °C)
1 | UUUAAGCAAUAUUACGUGCC | -1.95 ± 0.21 | -0.891 ± 0.22
2 | UUUAAGCAAUAUUACGUUAU | -3.18 ± 0.2 | -2.16 ± 0.22
3 | UUUAAGCAAUAUUACGUUUG | -2.96 ± 0.19 | -1.42 ± 0.13
4 | UUUCAGCAAUAUUACGAAUA | -0.788 ± 0.15 | 0.446 ± 0.13
5 | UUUCAGCAAUAUUACGACAG | -0.245 ± 0.089 | 0.886 ± 0.15
6 | UUUCAGCAAUAUUACGACGC | -2.68 ± 0.24 | -1.67 ± 0.19
7 | UUUCAGCAAUAUUACGAUUC |  | -1.37 ± 0.41
8 | UUUCAGCAAUAUUACGCAAU | -2.36 ± 0.21 | -0.692 ± 0.23
9 | UUUCAGCAAUAUUACGCCAG | -1.4 ± 0.31 | -0.498 ± 0.24
10 | UUUCAGCAAUAUUACGCCGG | -0.905 ± 0.17 | -1.68 ± 0.25
11 | UUUCAGCAAUAUUACGCCUA | -0.129 ± 0.066 | 0.414 ± 0.078
12 | UUUCAGCAAUAUUACGGCGC | -1.11 ± 0.11 | -1.58 ± 0.16
13 | UUUCAGCAAUAUUACGGUCC | -2.8 ± 0.37 | -0.245 ± 0.35
14 | UUUCAGCAAUAUUACGUACA | -0.836 ± 0.11 | -0.465 ± 0.11
15 | UUUCAGCAAUAUUACGUAUG | -0.689 ± 0.081 | -0.635 ± 0.11
16 | UUUCAGCAAUAUUACGUUUC |  | -2.28 ± 0.29
17 | UUUGAGCAAUAUUACGAAAA | -2.31 ± 0.28 | -1.21 ± 0.24
18 | UUUGAGCAAUAUUACGACGA | -0.573 ± 0.15 | 0.211 ± 0.18
19 | UUUGAGCAAUAUUACGACUA | -1.98 ± 0.27 | -1.32 ± 0.28
20 | UUUGAGCAAUAUUACGAGAA |  | -2.17 ± 0.46

Row | Sequence | self-splicing fitness (ln) (30 °C) | self-splicing fitness (ln) (37 °C)
21 | UUUGAGCAAUAUUACGAGCA |  | -1.53 ± 0.43
22 | UUUGAGCAAUAUUACGAUAU |  | -0.926 ± 0.24
23 | UUUGAGCAAUAUUACGCAGC | -3.5 ± 0.28 | -2.43 ± 0.21
24 | UUUGAGCAAUAUUACGCCUA | -0.79 ± 0.45 | 
25 | UUUGAGCAAUAUUACGCGCA |  | -1.65 ± 0.48
26 | UUUGAGCAAUAUUACGCUAC |  | -1.45 ± 0.3
27 | UUUGAGCAAUAUUACGCUAG | -2.68 ± 0.37 | -1.33 ± 0.23
28 | UUUGAGCAAUAUUACGCUGA | -2.58 ± 0.34 | 
29 | UUUGAGCAAUAUUACGGCGG | -1.04 ± 0.24 | -1.57 ± 0.28
30 | UUUGAGCAAUAUUACGGGGC |  | -2.07 ± 0.45
31 | UUUGAGCAAUAUUACGGGUU | -3.23 ± 0.34 | -2.91 ± 0.48
32 | UUUGAGCAAUAUUACGGUAU | -4.23 ± 0.36 | -2.73 ± 0.38
33 | UUUGAGCAAUAUUACGUAUC | -4 ± 0.29 | -2.45 ± 0.23
34 | UUUGAGCAAUAUUACGUCAU | -3.88 ± 0.34 | -1.64 ± 0.21
35 | UUUGAGCAAUAUUACGUCUA | -1.05 ± 0.2 | -1.06 ± 0.21
36 | UUUGAGCAAUAUUACGUGCU | -3.64 ± 0.16 | -2.84 ± 0.2
37 | UUUGAGCAAUAUUACGUUAA | -2.96 ± 0.29 | -1.57 ± 0.22
38 | UUUUAGCAAUAUUACGAAGG |  | -1.85 ± 0.41
39 | UUUUAGCAAUAUUACGAAUC |  | -1.38 ± 0.4
40 | UUUUAGCAAUAUUACGACAU | -2.164 ± 0.021 | -1.09 ± 0.036

Row | Sequence | self-splicing fitness (ln) (30 °C) | self-splicing fitness (ln) (37 °C)
41 | UUUUAGCAAUAUUACGAUCA | -0.641 ± 0.15 | -0.391 ± 0.17
42 | UUUUAGCAAUAUUACGCCAA | -2.27 ± 0.35 | 0.0505 ± 0.22
43 | UUUUAGCAAUAUUACGCCCA | -0.313 ± 0.22 | 0.00602 ± 0.28
44 | UUUUAGCAAUAUUACGCCGG | -1.28 ± 0.18 | -0.833 ± 0.21
45 | UUUUAGCAAUAUUACGCCUG | -0.393 ± 0.22 | 0.333 ± 0.3
46 | UUUUAGCAAUAUUACGCCUU | -1.74 ± 0.34 | -0.968 ± 0.22
47 | UUUUAGCAAUAUUACGCGAC | -2.52 ± 0.34 | 
48 | UUUUAGCAAUAUUACGCUAG | -3.18 ± 0.34 | -1.7 ± 0.35
49 | UUUUAGCAAUAUUACGCUCA | -0.731 ± 0.29 | 0.849 ± 0.44
50 | UUUUAGCAAUAUUACGCUCC | -1.4 ± 0.33 | -1.25 ± 0.45
51 | UUUUAGCAAUAUUACGCUUU | -3.71 ± 0.28 | -1.23 ± 0.16
52 | UUUUAGCAAUAUUACGGAUG | -1.12 ± 0.22 | 0.2 ± 0.15
53 | UUUUAGCAAUAUUACGGCUC | -2.49 ± 0.23 | -0.329 ± 0.21
54 | UUUUAGCAAUAUUACGUCGU | -3.49 ± 0.15 | -2.81 ± 0.17
55 | UUUUAGCAAUAUUACGUGUC | -2.93 ± 0.3 | -2.26 ± 0.38
56 | UUUUAGCAAUAUUACGUGUG | -2.29 ± 0.16 | -1.17 ± 0.15
57 | UUUUAGCAAUAUUACGUUAU | -2.53 ± 0.25 | -1.73 ± 0.35
58 | UUUUAGCAAUAUUACGUUCA | -1.18 ± 0.21 | -0.458 ± 0.22
59 | UUUUAGCAAUAUUACGUUGU | -2.65 ± 0.18 | -2.13 ± 0.24
